From patent US20060286584A1 (University of Texas, published 2006)

What was measured:
[1] = test system: T1, GST-Yki fusion protein (GST with full length Yki)
T1 sequence: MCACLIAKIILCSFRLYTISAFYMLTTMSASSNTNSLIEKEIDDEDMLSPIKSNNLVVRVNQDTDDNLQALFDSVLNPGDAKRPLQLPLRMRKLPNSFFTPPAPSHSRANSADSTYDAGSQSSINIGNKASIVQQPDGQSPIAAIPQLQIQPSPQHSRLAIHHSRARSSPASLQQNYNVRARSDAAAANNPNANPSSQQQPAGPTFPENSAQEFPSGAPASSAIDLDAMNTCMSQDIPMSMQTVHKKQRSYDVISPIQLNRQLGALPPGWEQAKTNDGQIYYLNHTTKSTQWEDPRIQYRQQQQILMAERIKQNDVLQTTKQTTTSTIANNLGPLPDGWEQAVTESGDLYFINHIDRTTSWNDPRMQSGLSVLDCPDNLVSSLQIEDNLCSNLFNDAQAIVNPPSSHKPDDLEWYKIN

[2] = biological target: T2, GST-Yki fusion protein (GST with full length Yki)
T2 chain: T1 sequence

[3] = biological target: GST-Tsc1 fusion (control substrate) [GST: P08515]
V5-tagged Wts (Warts) = biological target: T3, V5-tagged Wts (Warts) (Drosophila, UniProt Q9VA38 1-1; Q9VA38 2-1105); experiment: co-immunoprecipitation from S2 cells (anti-HA IP, anti-V5 blot)
T3 construct: Expressed in S2 cells; in the kinase assay it was immunoprecipitated with anti-V5, alone or after co-expression with Hpo-Sav; also called Lats
T3 sequence: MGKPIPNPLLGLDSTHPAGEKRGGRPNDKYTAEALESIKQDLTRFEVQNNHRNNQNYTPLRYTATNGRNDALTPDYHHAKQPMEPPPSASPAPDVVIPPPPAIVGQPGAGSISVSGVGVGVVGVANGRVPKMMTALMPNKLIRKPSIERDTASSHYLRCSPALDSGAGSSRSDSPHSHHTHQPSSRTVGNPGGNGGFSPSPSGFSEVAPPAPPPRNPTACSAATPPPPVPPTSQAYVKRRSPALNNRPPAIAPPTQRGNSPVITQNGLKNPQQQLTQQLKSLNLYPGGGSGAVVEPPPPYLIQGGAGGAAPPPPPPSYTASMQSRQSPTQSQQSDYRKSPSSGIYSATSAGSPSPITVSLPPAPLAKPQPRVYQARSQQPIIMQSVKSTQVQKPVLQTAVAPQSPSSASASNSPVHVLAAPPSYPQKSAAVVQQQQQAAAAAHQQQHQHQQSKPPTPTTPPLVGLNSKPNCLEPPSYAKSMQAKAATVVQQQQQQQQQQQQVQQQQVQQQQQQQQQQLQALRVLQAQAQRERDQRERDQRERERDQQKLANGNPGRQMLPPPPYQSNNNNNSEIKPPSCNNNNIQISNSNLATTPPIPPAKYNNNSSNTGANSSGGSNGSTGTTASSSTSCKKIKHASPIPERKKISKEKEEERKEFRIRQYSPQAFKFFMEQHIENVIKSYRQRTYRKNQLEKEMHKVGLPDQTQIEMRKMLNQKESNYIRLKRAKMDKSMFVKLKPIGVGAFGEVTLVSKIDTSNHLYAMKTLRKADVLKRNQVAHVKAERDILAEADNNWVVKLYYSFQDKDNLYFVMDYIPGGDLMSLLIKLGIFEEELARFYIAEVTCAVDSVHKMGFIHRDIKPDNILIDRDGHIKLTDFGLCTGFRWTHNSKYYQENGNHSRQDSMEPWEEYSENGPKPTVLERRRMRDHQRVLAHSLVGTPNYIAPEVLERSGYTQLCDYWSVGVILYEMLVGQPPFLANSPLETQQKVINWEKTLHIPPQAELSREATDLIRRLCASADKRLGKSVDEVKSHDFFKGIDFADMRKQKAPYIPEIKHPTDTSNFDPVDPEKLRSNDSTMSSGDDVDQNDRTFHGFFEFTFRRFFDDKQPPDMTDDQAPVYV
Text: HA-tagged wildtype Yki (Yki, lane 1), a mutant Yki carrying point mutations in the WW domains (Yki^{W292A P295A W361A P364A}, abbreviated as Yki^WM in lane 2), or a truncated Yki containing only the N-terminal half of the protein (Yki^N, lane 3) were co-expressed with V5-tagged Wts. α-HA immunoprecipitates were probed with and α-V5 antibody to detect physical interaction between the Yki variants and Wts. Note that wildtype Yki, but not Yki^WM or Yki^N, could immunoprecipitate Wts.
HA-tagged Yki was constructed by adding a C-terminal HA epitope ([…]) to Yki using the pAc5.1/V5-HisB vector (Invitrogen). N-terminal V5-tagged Wts was constructed in the same vector by adding a V5 tag ([…]) between the first and second codon of Wts. Point mutations of Yki and Wts were introduced using the QuikChange site-directed mutagenesis kit (Stratagene). Myc-tagged Hpo and Flag-tagged Sav constructs have been described previously (Wu et al., 2003). The pGEX4T-1 vector was used to express a fusion of GST with full length Yki the GST-Yki preparation contained two Yki-related bands, with the upper band migrating at the expected molecular weight. It also contained a contaminating band (FIG. 6C). The Yki-related bands, but not the contaminating band, were diminished by thrombin, which cleaves the GST-Yki fusion at the junction of GST and Yki (data not shown). […]

Sequence of GST-Tsc1 fusion (control substrate) [GST: P08515] (P08515 whole entry, looked up, the tested form may be a part): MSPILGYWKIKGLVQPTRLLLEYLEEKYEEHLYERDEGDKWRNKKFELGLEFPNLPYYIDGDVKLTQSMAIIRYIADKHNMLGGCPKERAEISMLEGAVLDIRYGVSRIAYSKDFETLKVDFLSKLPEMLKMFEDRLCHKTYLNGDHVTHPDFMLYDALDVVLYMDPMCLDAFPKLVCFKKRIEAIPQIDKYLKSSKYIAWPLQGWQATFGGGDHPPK

Molecule: V5-tagged kinase-dead Wts^K743R
- in vitro kinase activity (32P), kinase-dead Wts co-expressed with Hpo-Sav and immunoprecipitated [1]: a kinase dead mutation of Wts, WtsK^743R, completely abolished the in vitro kinase activity of Wts towards Yki

B1: V5-tagged Wts (Warts) (protein)
chain: T3 sequence
- in vitro kinase activity (32P), Wts co-expressed with Hpo-Sav and immunoprecipitated [2]: When co-expressed with Hpo-Sav, however, Wts displayed specific kinase activity towards Yki
- in vitro kinase activity (32P), Wts co-expressed with Hpo-Sav and immunoprecipitated [3]: Wts displayed specific kinase activity towards Yki (FIG. 6C, lane 2) but not a control substrate (FIG. 6C, lane 4)

B2: HA-tagged Yki^W292A P295A W361A P364A (other)
chain: MCACLIAKIILCSFRLYTISAFYMLTTMSASSNTNSLIEKEIDDEDMLSPIKSNNLVVRVNQDTDDNLQALFDSVLNPGDAKRPLQLPLRMRKLPNSFFTPPAPSHSRANSADSTYDAGSQSSINIGNKASIVQQPDGQSPIAAIPQLQIQPSPQHSRLAIHHSRARSSPASLQQNYNVRARSDAAAANNPNANPSSQQQPAGPTFPENSAQEFPSGAPASSAIDLDAMNTCMSQDIPMSMQTVHKKQRSYDVISPIQLNRQLGALPPGWEQAKTNDGQIYYLNHTTKSTQAEDARIQYRQQQQILMAERIKQNDVLQTTKQTTTSTIANNLGPLPDGWEQAVTESGDLYFINHIDRTTSANDARMQSGLSVLDCPDNLVSSLQIEDNLCSNLFNDAQAIVNPPSSHKPDDLEWYKINYPYDVPDYA
notes: Expressed in S2 cells; also called Yki^WM; mutant Yki carrying point mutations in the WW domains
- binding result (V5-tagged Wts (Warts)): no binding
